# Test results: article PMC6872814, “Functional interactions between nitrite reductase and nitric oxide reductase from Paracoccus denitrificans” (Scientific Reports, 2019)
# Legend:
# [1] = biological target: the molecule itself; experiment: fluorescence correlation spectroscopy (photon count-rate per molecule, CPM); increasing concentrations of cd1NiR-STAR 635 with 40 nM unlabelled cNOR in the solution; CPM fitted with the ligand-binding model (Eq. 2); apparent; monomer to dimer
# [2] = biological target: the molecule itself; experiment: fluorescence correlation spectroscopy (photon count-rate per molecule, CPM); increasing concentrations of cd1NiR-STAR 635 alone; CPM fitted with the ligand-binding model (Eq. 2); apparent; monomer to dimer; points above 15 nM not in the fit
protein,measurement,setting,value
"cytochrome cd1 nitrite reductase (cd1NiR) from Paracoccus pantotrophus, labelled with Abberior STAR 635 (enzyme, UniProt P72181 30-596, looked up, Abberior STAR 635 (amino-reactive dye, 5-fold molar excess; sites not stated); heme c and heme d1, cytochrome cd1 nitrite reductase (cd1NiR), Paracoccus pantotrophus (G6), soluble periplasmic protein; 97% identical to the P. denitrificans enzyme; STAR 635-labelled in the fluorescence experiments; the activity assays (functional rows) used the same protein unlabelled; Written as the monomer chain; also called cd1NiR-STAR 635; cd1NIR-STAR 635) QEQVAPPKDPAAALEDHKTRTDNRYEPSLDNLAQQDVAAPGAPEGVSALSDAQYNEANKIYFERCAGCHGVLRKGATGKALTPDLTRDLGFDYLQSFITYGSPAGMPNWGTSGELSAEQVDLMANYLLLDPAAPPEFGMKEMRESWKVHVAPEDRPTQQENDWDLENLFSVTLRDAGQIALIDGATYEIKSVLDTGYAVHISRLSASGRYLFVIGRDGKVNMIDLWMKEPTTVAEIKIGSEARSIETSKMEGWEDKYAIAGAYWPPQYVIMDGETLEPKKIQSTRGMTYDEQEYHPEPRVAAILASHYRPEFIVNVKETGKILLVDYTDLDNLKTTEISAERFLHDGGLDGSHRYFITAANARNKLVVIDTKEGKLVAIEDTGGQTPHPGRGANFVHPTFGPVWATSHMGDDSVALIGTDPEGHPDNAWKILDSFPALGGGSLFIKTHPNSQYLYVDATLNPEAEISGSVAVFDIKAMTGDGSDPEFKTLPIAEWAGITEGQPRVVQGEFNKDGTEVWFSVWNGKDQESALVVVDDKTLELKHVIKDERLVTPTGKFNVYNTMTDTY",Kd,[1],5.3 ± 0.2 nM
same,Kd,[2],3.5 ± 0.1 nM
